Source: patent US20210180062

Substance | GAP activity (reduction of GTP-bound small G protein, pull-down with effector-domain beads) (Ras) | GAP activity (reduction of GTP-bound small G protein, pull-down with effector-domain beads) (Rac1) | GAP activity (reduction of GTP-bound small G protein, pull-down with effector-domain beads) (Rap1)
SynGAP α1 (isoform construct co-transfected in the small GTPase assay) | SynGAP α1 and α2 has mild preference towards Ras rather than Rap |  | 
SynGAP β (isoform construct co-transfected in the small GTPase assay) | SynGAP β generally has highest GAP activity into all small G proteins among other isoforms | SynGAP β generally has highest GAP activity into all small G proteins among other isoforms | 
SynGAP α2 (isoform construct co-transfected in the small GTPase assay) | SynGAP α1 and α2 has mild preference towards Ras rather than Rap |  | 
SynGAP γ (isoform construct co-transfected in the small GTPase assay) |  |  | SynGAP β and γ has mild preference towards Rap1
